Laboratory results from the Human Domainome abundance scans (Beltran et al. 2025).
± gives the uncertainty stated by the source.

B1: Tripartite motif-containing protein 49C, residues 87 to 133; numbered along this chain, P0CI26 (parent)
chain: SSEEQMCGTHRETKKIFCEVDRSLLCLLCSSSQEHRYHRHRPIEWAA
B2: Lysine-specific demethylase 5C, residues 319 to 373; numbered along this chain, P41229 (parent)
chain: AQFIESYVCRMCSRGDEDDKLLLCDGCDDNYHIFCLLPPLPEIPKGVWRCPKCVM

Variants of: B1
Test: abundance fitness (aPCA) (normalised: wild type 0, dead -1); higher = more abundant; growth selection in yeast, the domain comes from the species named
Conditions: Homo sapiens
With R11L the abundance fitness was -0.418 ± 0.11.
For K14C, the abundance fitness was -0.222 ± 0.15.
Variant K14A has an abundance fitness of -0.029 ± 0.1.
Work on L25A yielded an abundance fitness of -0.639 ± 0.12.
Variant Y37E has an abundance fitness of 0.178 ± 0.15.
With R39C the abundance fitness was -0.375 ± 0.11.
Work on R39Y yielded an abundance fitness of -0.328 ± 0.22.
D21I gave an abundance fitness of -0.789 ± 0.32.
Variant H10Q has an abundance fitness of -0.757 ± 0.19.
C29F gave an abundance fitness of -1.08 ± 0.2.
With C29E the abundance fitness was -0.63 ± 0.12.
In the case of K15N, the abundance fitness is reported as 0.201 ± 0.17.
For E44R, the abundance fitness was -0.507 ± 0.079.
With E44N the abundance fitness was -0.065 ± 0.12.
With H35P the abundance fitness was -0.676 ± 0.14.
S2K showed an abundance fitness of -0.114 ± 0.14.
With V20Y the abundance fitness was -0.036 ± 0.083.
For T13K, the abundance fitness was -0.224 ± 0.15.
In the case of T13S, the abundance fitness is reported as -0.081 ± 0.086.
T13A showed an abundance fitness of 0.168 ± 0.097.
For E4G, the abundance fitness was -0.68 ± 0.091.
With I16Q the abundance fitness was -0.468 ± 0.14.
With E3H the abundance fitness was -0.246 ± 0.26.
Variant R36Y has an abundance fitness of -0.701 ± 0.18.
Work on C18W yielded an abundance fitness of -0.907 ± 0.13.
Work on L27R yielded an abundance fitness of 0.149 ± 0.07.

Variants of: B2
Test: as above
Conditions: Homo sapiens
With N30Y the abundance fitness was -0.143 ± 0.15.
With N30V the abundance fitness was 0.152 ± 0.081.
Work on N30C yielded an abundance fitness of 0.006 ± 0.12.
N30P gave an abundance fitness of -0.088 ± 0.11.
In the case of Q2R, the abundance fitness is reported as -0.271 ± 0.14.
Work on Q2P yielded an abundance fitness of -0.141 ± 0.18.
Work on Q2L yielded an abundance fitness of -0.119 ± 0.11.
In the case of Q2V, the abundance fitness is reported as -0.153 ± 0.27.
Variant Q2I has an abundance fitness of 0.186 ± 0.37.
Q2W showed an abundance fitness of -0.057 ± 0.21.
For Q2G, the abundance fitness was -0.446 ± 0.21.
With Q2N the abundance fitness was -0.019 ± 0.19.
With I43N the abundance fitness was -0.222 ± 0.25.
In the case of I43C, the abundance fitness is reported as -0.314 ± 0.15.
I43A showed an abundance fitness of -0.281 ± 0.18.
Work on I43V yielded an abundance fitness of -0.137 ± 0.15.
For I43F, the abundance fitness was -0.21 ± 0.23.
Variant I43K has an abundance fitness of -0.101 ± 0.14.
Variant I43H has an abundance fitness of -0.139 ± 0.17.
Variant I43M has an abundance fitness of 0.156 ± 0.14.
Variant I43E has an abundance fitness of -0.057 ± 0.32.
C9F gave an abundance fitness of -0.659 ± 0.23.
Variant C9H has an abundance fitness of -0.798 ± 0.28.
For C9D, the abundance fitness was -0.847 ± 0.23.
Y31W gave an abundance fitness of -0.364 ± 0.14.
Variant Y31S has an abundance fitness of -0.93 ± 0.19.
With Y31E the abundance fitness was -0.538 ± 0.14.
For Y31K, the abundance fitness was -0.702 ± 0.14.
In the case of Y31F, the abundance fitness is reported as -0.163 ± 0.14.
In the case of Y31R, the abundance fitness is reported as -0.641 ± 0.11.
Y31V showed an abundance fitness of -0.113 ± 0.079.
Work on Y31L yielded an abundance fitness of -0.589 ± 0.12.
Work on P51F yielded an abundance fitness of -0.048 ± 0.2.
For P51H, the abundance fitness was -0.015 ± 0.17.
With P51I the abundance fitness was -0.175 ± 0.19.
Work on P51G yielded an abundance fitness of -0.494 ± 0.18.
P51D showed an abundance fitness of 0.009 ± 0.19.
For P51Y, the abundance fitness was -0.312 ± 0.26.
Work on K20H yielded an abundance fitness of -0.103 ± 0.19.
For K20C, the abundance fitness was -0.379 ± 0.3.
K20G showed an abundance fitness of -0.666 ± 0.2.
Variant K20R has an abundance fitness of -0.136 ± 0.15.
P38T gave an abundance fitness of -0.285 ± 0.2.
In the case of P38G, the abundance fitness is reported as -0.454 ± 0.13.
With P38D the abundance fitness was -0.35 ± 0.2.
Variant P38M has an abundance fitness of -0.388 ± 0.15.
Work on P38N yielded an abundance fitness of 0.041 ± 0.2.
With P38H the abundance fitness was -0.12 ± 0.17.
Work on P38R yielded an abundance fitness of -0.116 ± 0.11.
Variant G15I has an abundance fitness of -0.065 ± 0.1.
G15P gave an abundance fitness of 0.04 ± 0.074.
Variant G15V has an abundance fitness of -0.025 ± 0.096.
For G15Q, the abundance fitness was -0.124 ± 0.086.
Variant G15M has an abundance fitness of -0.142 ± 0.1.
Work on G15R yielded an abundance fitness of 0.035 ± 0.075.
P39W showed an abundance fitness of -0.752 ± 0.27.
With P39H the abundance fitness was -0.787 ± 0.3.
